Numbered stars: 1 amine (or outer) side, 2 acyl side, 3 side chain; on linkers, the order of the positions; unused ones are H or OH. Bridge positions count the residues as written; N and C are the ends. Side chains are listed from the residue outwards. Ends that are not written are not given here. * marks the point of attachment. C20 diacid = O=C(O)CCCCCCCCCCCCCCCCCCC(=O)*; γGlu = O=C(O)[C@H](CCC(=O)[*:2])N[*:1]; AEEA = NCCOCCOCC(=O)O
T1: human amylin receptor (human, UniProt P30988 25-474; O60896 24-148, limits assumed)
T1 construct: whole, on cells; Calcitonin receptor plus RAMP-3 gives the amylin 3(a) receptor; membranes of Amylin 3(a)/CRE-luc cells were used; also called hAmylin-R; hAmylinR
T1 sequence (looked up) 1: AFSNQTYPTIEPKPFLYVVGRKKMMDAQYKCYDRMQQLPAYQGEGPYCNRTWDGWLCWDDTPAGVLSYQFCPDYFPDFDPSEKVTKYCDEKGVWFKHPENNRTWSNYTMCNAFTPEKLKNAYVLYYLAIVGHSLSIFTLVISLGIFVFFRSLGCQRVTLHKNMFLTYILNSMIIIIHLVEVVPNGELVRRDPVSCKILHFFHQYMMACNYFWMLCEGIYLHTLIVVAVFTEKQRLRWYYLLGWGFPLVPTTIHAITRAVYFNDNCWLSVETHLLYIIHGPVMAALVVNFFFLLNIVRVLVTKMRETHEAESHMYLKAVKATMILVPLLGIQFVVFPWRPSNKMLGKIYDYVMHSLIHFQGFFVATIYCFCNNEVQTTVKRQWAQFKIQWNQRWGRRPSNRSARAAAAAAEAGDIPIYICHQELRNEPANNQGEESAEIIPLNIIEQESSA
T1 sequence (looked up) 2: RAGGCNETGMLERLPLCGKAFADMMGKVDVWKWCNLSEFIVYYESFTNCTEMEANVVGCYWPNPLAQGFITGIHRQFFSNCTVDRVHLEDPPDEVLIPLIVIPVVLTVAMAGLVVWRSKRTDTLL


Target: T1, human amylin receptor
Assay: SPA competition binding, displacement of 125I-rat amylin from membranes with human amylin 3(a) receptor (Assay V)
In short: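 SPA beads with BHK Amylin 3(a)/CRE-luc cell membranes (35 ng/μL final) in 50 mM Hepes pH 7.4, 1 mM CaCl2, 5 mM MgCl₂, 0.1% OA, 0.02% Tween20.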

Binder | IC50 [nM]
{C20 diacid-γGlu}-GRCNTATCATQRLANFLRHSSPNFGAIPSSTNVGSNTY-NH2 (disulfide 3-8; SMILES CC[C@H](C)[C@H](NC(=O)[C@H](C)NC(=O)CNC(=O)[C@H](Cc1ccccc1)NC(=O)[C@H](CC(N)=O)NC(=O)[C@@H]1CCCN1C(=O)[C@H](CO)NC(=O)[C@H](CO)NC(=O)[C@H](Cc1c[nH]cn1)NC(=O)[C@H](CCCNC(=N)N)NC(=O)[C@H](CC(C)C)NC(=O)[C@H](Cc1ccccc1)NC(=O)[C@H](CC(N)=O)NC(=O)[C@H](C)NC(=O)[C@H](CC(C)C)NC(=O)[C@H](CCCNC(=N)N)NC(=O)[C@H](CCC(N)=O)NC(=O)[C@@H](NC(=O)[C@H](C)NC(=O)[C@@H]1CSSC[C@H](NC(=O)[C@H](CCCNC(=N)N)NC(=O)CNC(=O)CC[C@H](NC(=O)CCCCCCCCCCCCCCCCCCC(=O)O)C(=O)O)C(=O)N[C@@H](CC(N)=O)C(=O)N[C@@H]([C@@H](C)O)C(=O)N[C@@H](C)C(=O)N[C@@H]([C@@H](C)O)C(=O)N1)[C@@H](C)O)C(=O)N1CCC[C@H]1C(=O)N[C@@H](CO)C(=O)N[C@@H](CO)C(=O)N[C@H](C(=O)N[C@@H](CC(N)=O)C(=O)N[C@H](C(=O)NCC(=O)N[C@@H](CO)C(=O)N[C@@H](CC(N)=O)C(=O)N[C@H](C(=O)N[C@@H](Cc1ccc(O)cc1)C(N)=O)[C@@H](C)O)C(C)C)[C@@H](C)O, also called -1G, 1R, 17R, 21P, 27P) [N^-1-[(4S)-4-carboxy-4-(19-carboxynonadecanoylamino)butanoyl]-Gly[Arg1,Arg17,Pro21,Pro27]-h-amylin] | 0.195
{C20 diacid-γGlu}-KCNTATCATQRLAEFLRHSSPNFGAIPSSTNVGKNTY-NH2 (disulfide 2-7; SMILES CC[C@H](C)[C@H](NC(=O)[C@H](C)NC(=O)CNC(=O)[C@H](Cc1ccccc1)NC(=O)[C@H](CC(N)=O)NC(=O)[C@@H]1CCCN1C(=O)[C@H](CO)NC(=O)[C@H](CO)NC(=O)[C@H](Cc1c[nH]cn1)NC(=O)[C@H](CCCNC(=N)N)NC(=O)[C@H](CC(C)C)NC(=O)[C@H](Cc1ccccc1)NC(=O)[C@H](CCC(=O)O)NC(=O)[C@H](C)NC(=O)[C@H](CC(C)C)NC(=O)[C@H](CCCNC(=N)N)NC(=O)[C@H](CCC(N)=O)NC(=O)[C@@H](NC(=O)[C@H](C)NC(=O)[C@@H]1CSSC[C@H](NC(=O)[C@H](CCCCN)NC(=O)CC[C@H](NC(=O)CCCCCCCCCCCCCCCCCCC(=O)O)C(=O)O)C(=O)N[C@@H](CC(N)=O)C(=O)N[C@@H]([C@@H](C)O)C(=O)N[C@@H](C)C(=O)N[C@@H]([C@@H](C)O)C(=O)N1)[C@@H](C)O)C(=O)N1CCC[C@H]1C(=O)N[C@@H](CO)C(=O)N[C@@H](CO)C(=O)N[C@H](C(=O)N[C@@H](CC(N)=O)C(=O)N[C@H](C(=O)NCC(=O)N[C@@H](CCCCN)C(=O)N[C@@H](CC(N)=O)C(=O)N[C@H](C(=O)N[C@@H](Cc1ccc(O)cc1)C(N)=O)[C@@H](C)O)C(C)C)[C@@H](C)O, also called 14E, 17R, 21P, 27P, 34K) | 0.403
K([AEEA-C20 diacid])CNTATCATQRLANFLRHSSPNFGAIPSSTNVGSNTY-NH2 (disulfide 2-7; N-terminus assumed; SMILES CC[C@H](C)[C@H](NC(=O)[C@H](C)NC(=O)CNC(=O)[C@H](Cc1ccccc1)NC(=O)[C@H](CC(N)=O)NC(=O)[C@@H]1CCCN1C(=O)[C@H](CO)NC(=O)[C@H](CO)NC(=O)[C@H](Cc1c[nH]cn1)NC(=O)[C@H](CCCNC(=N)N)NC(=O)[C@H](CC(C)C)NC(=O)[C@H](Cc1ccccc1)NC(=O)[C@H](CC(N)=O)NC(=O)[C@H](C)NC(=O)[C@H](CC(C)C)NC(=O)[C@H](CCCNC(=N)N)NC(=O)[C@H](CCC(N)=O)NC(=O)[C@@H](NC(=O)[C@H](C)NC(=O)[C@@H]1CSSC[C@H](NC(=O)[C@@H](N)CCCCNC(=O)COCCOCCNC(=O)CCCCCCCCCCCCCCCCCCC(=O)O)C(=O)N[C@@H](CC(N)=O)C(=O)N[C@@H]([C@@H](C)O)C(=O)N[C@@H](C)C(=O)N[C@@H]([C@@H](C)O)C(=O)N1)[C@@H](C)O)C(=O)N1CCC[C@H]1C(=O)N[C@@H](CO)C(=O)N[C@@H](CO)C(=O)N[C@H](C(=O)N[C@@H](CC(N)=O)C(=O)N[C@H](C(=O)NCC(=O)N[C@@H](CO)C(=O)N[C@@H](CC(N)=O)C(=O)N[C@H](C(=O)N[C@@H](Cc1ccc(O)cc1)C(N)=O)[C@@H](C)O)C(C)C)[C@@H](C)O, also called 17R, 21P, 27P) [N^ε1-[2-[2-[2-(19-carboxynonadecanoylamino)ethoxy]ethoxy]acetyl]-[Arg17,Pro21,Pro27]-h-amylin] | 0.076

More lines, now with the values ahead:

IC50 [nM] | Binder
0.114 | {C20 diacid-γGlu}-GRCNTATCATQRLAAFLRHSSPNFGAIPSSTNVGPNTY-NH2 (disulfide 3-8, also called -1G, 1R, 14A, 17R, 21P, 27P, 34P)
0.426 | {C20 diacid-γGlu}-GRCNTATCATQRLAAFLRHSSPNFGAIPSSTNVGHNTY-NH2 (disulfide 3-8; SMILES CC[C@H](C)[C@H](NC(=O)[C@H](C)NC(=O)CNC(=O)[C@H](Cc1ccccc1)NC(=O)[C@H](CC(N)=O)NC(=O)[C@@H]1CCCN1C(=O)[C@H](CO)NC(=O)[C@H](CO)NC(=O)[C@H](Cc1c[nH]cn1)NC(=O)[C@H](CCCNC(=N)N)NC(=O)[C@H](CC(C)C)NC(=O)[C@H](Cc1ccccc1)NC(=O)[C@H](C)NC(=O)[C@H](C)NC(=O)[C@H](CC(C)C)NC(=O)[C@H](CCCNC(=N)N)NC(=O)[C@H](CCC(N)=O)NC(=O)[C@@H](NC(=O)[C@H](C)NC(=O)[C@@H]1CSSC[C@H](NC(=O)[C@H](CCCNC(=N)N)NC(=O)CNC(=O)CC[C@H](NC(=O)CCCCCCCCCCCCCCCCCCC(=O)O)C(=O)O)C(=O)N[C@@H](CC(N)=O)C(=O)N[C@@H]([C@@H](C)O)C(=O)N[C@@H](C)C(=O)N[C@@H]([C@@H](C)O)C(=O)N1)[C@@H](C)O)C(=O)N1CCC[C@H]1C(=O)N[C@@H](CO)C(=O)N[C@@H](CO)C(=O)N[C@H](C(=O)N[C@@H](CC(N)=O)C(=O)N[C@H](C(=O)NCC(=O)N[C@@H](Cc1c[nH]cn1)C(=O)N[C@@H](CC(N)=O)C(=O)N[C@H](C(=O)N[C@@H](Cc1ccc(O)cc1)C(N)=O)[C@@H](C)O)C(C)C)[C@@H](C)O, also called -1G, 1R, 14A, 17R, 21P, 27P, 34H)
0.09 | K([γGlu-C20 diacid])CNTATCATQRLAHFLRHSSPNFGAIPSSTNVGPNTY-NH2 (disulfide 2-7; N-terminus assumed; SMILES CC[C@H](C)[C@H](NC(=O)[C@H](C)NC(=O)CNC(=O)[C@H](Cc1ccccc1)NC(=O)[C@H](CC(N)=O)NC(=O)[C@@H]1CCCN1C(=O)[C@H](CO)NC(=O)[C@H](CO)NC(=O)[C@H](Cc1c[nH]cn1)NC(=O)[C@H](CCCNC(=N)N)NC(=O)[C@H](CC(C)C)NC(=O)[C@H](Cc1ccccc1)NC(=O)[C@H](Cc1c[nH]cn1)NC(=O)[C@H](C)NC(=O)[C@H](CC(C)C)NC(=O)[C@H](CCCNC(=N)N)NC(=O)[C@H](CCC(N)=O)NC(=O)[C@@H](NC(=O)[C@H](C)NC(=O)[C@@H]1CSSC[C@H](NC(=O)[C@@H](N)CCCCNC(=O)CC[C@H](NC(=O)CCCCCCCCCCCCCCCCCCC(=O)O)C(=O)O)C(=O)N[C@@H](CC(N)=O)C(=O)N[C@@H]([C@@H](C)O)C(=O)N[C@@H](C)C(=O)N[C@@H]([C@@H](C)O)C(=O)N1)[C@@H](C)O)C(=O)N1CCC[C@H]1C(=O)N[C@@H](CO)C(=O)N[C@@H](CO)C(=O)N[C@H](C(=O)N[C@@H](CC(N)=O)C(=O)N[C@H](C(=O)NCC(=O)N1CCC[C@H]1C(=O)N[C@@H](CC(N)=O)C(=O)N[C@H](C(=O)N[C@@H](Cc1ccc(O)cc1)C(N)=O)[C@@H](C)O)C(C)C)[C@@H](C)O, also called 14H, 17R, 21P, 27P, 34P)
0.427 | K([AEEA-γGlu-C20 diacid])CNTATCATQRLANFLRHSSPNFGAIPSSTNVGSNTY-NH2 (disulfide 2-7; N-terminus assumed; SMILES CC[C@H](C)[C@H](NC(=O)[C@H](C)NC(=O)CNC(=O)[C@H](Cc1ccccc1)NC(=O)[C@H](CC(N)=O)NC(=O)[C@@H]1CCCN1C(=O)[C@H](CO)NC(=O)[C@H](CO)NC(=O)[C@H](Cc1c[nH]cn1)NC(=O)[C@H](CCCNC(=N)N)NC(=O)[C@H](CC(C)C)NC(=O)[C@H](Cc1ccccc1)NC(=O)[C@H](CC(N)=O)NC(=O)[C@H](C)NC(=O)[C@H](CC(C)C)NC(=O)[C@H](CCCNC(=N)N)NC(=O)[C@H](CCC(N)=O)NC(=O)[C@@H](NC(=O)[C@H](C)NC(=O)[C@@H]1CSSC[C@H](NC(=O)[C@@H](N)CCCCNC(=O)COCCOCCNC(=O)CC[C@H](NC(=O)CCCCCCCCCCCCCCCCCCC(=O)O)C(=O)O)C(=O)N[C@@H](CC(N)=O)C(=O)N[C@@H]([C@@H](C)O)C(=O)N[C@@H](C)C(=O)N[C@@H]([C@@H](C)O)C(=O)N1)[C@@H](C)O)C(=O)N1CCC[C@H]1C(=O)N[C@@H](CO)C(=O)N[C@@H](CO)C(=O)N[C@H](C(=O)N[C@@H](CC(N)=O)C(=O)N[C@H](C(=O)NCC(=O)N[C@@H](CO)C(=O)N[C@@H](CC(N)=O)C(=O)N[C@H](C(=O)N[C@@H](Cc1ccc(O)cc1)C(N)=O)[C@@H](C)O)C(C)C)[C@@H](C)O, also called 17R, 21P, 27P)

From patent US20140087995A1 (published 2014)
